According to article PMC10397247:
One block for each binder: values may come before it.

How the values were obtained:
4H607-bH = target: T1, 4H607-bH; test: two-hybrid library CCNG1;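 further: natural log of median RNA to DNA barcode read ratio; higher means stronger binding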
T1 chain: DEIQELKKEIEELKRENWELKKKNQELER

4H687-bH = target: T2, 4H687-bH; test: two-hybrid library CCNG1;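 further: natural log of median RNA to DNA barcode read ratio; higher means stronger binding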
T2 chain: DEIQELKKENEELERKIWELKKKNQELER

4H717-bH = target: T3, 4H717-bH; test: two-hybrid library CCNG1;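 further: natural log of median RNA to DNA barcode read ratio; higher means stronger binding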
T3 chain: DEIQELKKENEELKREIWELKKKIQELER

4H72-bH = target: T4, 4H72-bH; test: two-hybrid library CCNG1;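 further: natural log of median RNA to DNA barcode read ratio; higher means stronger binding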
T4 chain: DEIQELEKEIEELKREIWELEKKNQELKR

4H754-bH = target: T5, 4H754-bH; test: two-hybrid library CCNG1
T5 chain: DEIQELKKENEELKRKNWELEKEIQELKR

4H797-bH = target: T6, 4H797-bH; test: two-hybrid library CCNG1
T6 chain: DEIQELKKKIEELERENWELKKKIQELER

4H883-bH = target: T7, 4H883-bH; test: two-hybrid library CCNG1
T7 chain: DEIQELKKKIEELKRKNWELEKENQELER

4H908-bH = target: T8, 4H908-bH; test: two-hybrid library CCNG1
T8 chain: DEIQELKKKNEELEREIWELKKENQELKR

4H918-bH = target: T9, 4H918-bH; test: two-hybrid library CCNG1
T9 chain: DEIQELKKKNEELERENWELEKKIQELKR

4H953-bH = target: T10, 4H953-bH; test: two-hybrid library CCNG1
T10 chain: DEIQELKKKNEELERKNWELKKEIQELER

4H967-bH = target: T11, 4H967-bH; test: two-hybrid library CCNG1
T11 chain: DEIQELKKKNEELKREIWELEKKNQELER

4H3619-AA = target: T12, 4H3619-AA; test: two-hybrid library CCmax
T12 chain: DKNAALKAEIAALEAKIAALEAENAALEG

4H3629-AA = target: T13, 4H3629-AA; test: two-hybrid library CCmax; conditions: mean of both orientations
T13 chain: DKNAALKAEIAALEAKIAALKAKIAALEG

4H3777-AA = target: T14, 4H3777-AA; test: two-hybrid library CCmax; conditions: mean of both orientations
T14 chain: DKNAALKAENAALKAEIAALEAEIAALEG

4H380-AA = target: T15, 4H380-AA; test: two-hybrid library CCmax; conditions: mean of both orientations
T15 chain: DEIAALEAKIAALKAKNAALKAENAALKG

4H3915-AA = target: T16, 4H3915-AA; test: two-hybrid library CCmax; conditions: mean of both orientations
T16 chain: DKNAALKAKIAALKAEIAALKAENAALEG

4H3974-AA = target: T17, 4H3974-AA; test: two-hybrid library CCmax; conditions: mean of both orientations
T17 chain: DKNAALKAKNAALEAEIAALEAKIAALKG

4H432-AA = target: T18, 4H432-AA; test: two-hybrid library CCmax; conditions: mean of both orientations
T18 chain: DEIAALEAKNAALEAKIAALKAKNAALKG

4H446-AA = target: T19, 4H446-AA; test: two-hybrid library CCmax; conditions: mean of both orientations
T19 chain: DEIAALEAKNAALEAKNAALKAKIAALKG

4H63-AA = target: T20, 4H63-AA; test: two-hybrid library CCmax; conditions: mean of both orientations
T20 chain: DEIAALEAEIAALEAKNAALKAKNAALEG

4H883-bN = target: T21, 4H883-bN; test: two-hybrid library CCNG1
T21 chain: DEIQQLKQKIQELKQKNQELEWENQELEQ

4H2725-AA = target: T22, 4H2725-AA; test: two-hybrid library CCmax
T22 chain: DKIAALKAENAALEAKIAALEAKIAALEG

4H2865-AA = target: T23, 4H2865-AA; test: two-hybrid library CCmax; conditions: mean of both orientations
T23 chain: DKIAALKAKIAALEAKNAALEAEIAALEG

4H3009-AA = target: T24, 4H3009-AA; test: two-hybrid library CCmax; conditions: mean of both orientations
T24 chain: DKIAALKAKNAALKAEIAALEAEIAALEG

4H3016-AA = target: T25, 4H3016-AA; test: two-hybrid library CCmax; conditions: mean of both orientations
T25 chain: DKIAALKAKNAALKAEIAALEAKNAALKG

4H310-AA = target: T26, 4H310-AA; test: two-hybrid library CCmax; conditions: mean of both orientations
T26 chain: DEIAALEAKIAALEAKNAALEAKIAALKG

4H3120-AA = target: T27, 4H3120-AA; test: two-hybrid library CCmax; conditions: mean of both orientations
T27 chain: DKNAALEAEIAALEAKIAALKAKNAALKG

4H3130-AA = target: T28, 4H3130-AA; test: two-hybrid library CCmax; conditions: mean of both orientations
T28 chain: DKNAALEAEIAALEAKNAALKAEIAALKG

4H3165-AA = target: T29, 4H3165-AA; test: two-hybrid library CCmax; conditions: mean of both orientations
T29 chain: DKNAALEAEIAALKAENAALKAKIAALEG

4H3381-AA = target: T30, 4H3381-AA; test: two-hybrid library CCmax; conditions: mean of both orientations
T30 chain: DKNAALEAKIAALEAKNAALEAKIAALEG

4H3395-AA = target: T31, 4H3395-AA; test: two-hybrid library CCmax; conditions: mean of both orientations
T31 chain: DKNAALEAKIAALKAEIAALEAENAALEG

4H3410-AA = target: T32, 4H3410-AA; test: two-hybrid library CCmax; conditions: mean of both orientations
T32 chain: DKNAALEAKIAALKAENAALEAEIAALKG

4H3590-AA = target: T33, 4H3590-AA; test: two-hybrid library CCmax; conditions: mean of both orientations
T33 chain: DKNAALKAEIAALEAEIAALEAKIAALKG

4H3697-AA = target: T34, 4H3697-AA; test: two-hybrid library CCmax
T34 chain: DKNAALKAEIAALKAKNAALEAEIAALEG

4H3753-AA = target: T35, 4H3753-AA; test: two-hybrid library CCmax; conditions: mean of both orientations
T35 chain: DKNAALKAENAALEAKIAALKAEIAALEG

4H3865-AA = target: T36, 4H3865-AA; test: two-hybrid library CCmax; conditions: mean of both orientations
T36 chain: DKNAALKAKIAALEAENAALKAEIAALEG

4H458-AA = target: T37, 4H458-AA; test: two-hybrid library CCmax; conditions: mean of both orientations
T37 chain: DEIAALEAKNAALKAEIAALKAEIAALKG

4H485-AA = target: T38, 4H485-AA; test: two-hybrid library CCmax; conditions: mean of both orientations
T38 chain: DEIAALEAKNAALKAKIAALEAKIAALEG

4H536-AA = target: T39, 4H536-AA; test: two-hybrid library CCmax; conditions: mean of both orientations
T39 chain: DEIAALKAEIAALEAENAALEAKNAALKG

4H570-AA = target: T40, 4H570-AA; test: two-hybrid library CCmax; conditions: mean of both orientations
T40 chain: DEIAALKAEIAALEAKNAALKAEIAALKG

4H629-AA = target: T41, 4H629-AA; test: two-hybrid library CCmax; conditions: mean of both orientations
T41 chain: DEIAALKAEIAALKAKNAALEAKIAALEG

4H710-AA = target: T42, 4H710-AA; test: two-hybrid library CCmax; conditions: mean of both orientations
T42 chain: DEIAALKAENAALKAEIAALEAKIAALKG

4H745-AA = target: T43, 4H745-AA; test: two-hybrid library CCmax; conditions: mean of both orientations
T43 chain: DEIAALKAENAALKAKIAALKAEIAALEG

4H797-AA = target: T44, 4H797-AA; test: two-hybrid library CCmax; conditions: mean of both orientations
T44 chain: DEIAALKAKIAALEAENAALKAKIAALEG

4H850-AA = target: T45, 4H850-AA; test: two-hybrid library CCmax; conditions: mean of both orientations
T45 chain: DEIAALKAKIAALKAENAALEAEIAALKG

4H891-AA = target: T46, 4H891-AA; test: two-hybrid library CCmax; conditions: mean of both orientations
T46 chain: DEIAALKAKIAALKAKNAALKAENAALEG

4H909-AA = target: T47, 4H909-AA; test: two-hybrid library CCmax; conditions: mean of both orientations
T47 chain: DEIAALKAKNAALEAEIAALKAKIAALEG

4H930-AA = target: T48, 4H930-AA; test: two-hybrid library CCmax; conditions: mean of both orientations
T48 chain: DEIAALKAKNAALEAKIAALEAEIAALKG

4H94-AA = target: T49, 4H94-AA; test: two-hybrid library CCmax; conditions: mean of both orientations
T49 chain: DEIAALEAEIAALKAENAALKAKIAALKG

4H55-AA = target: T50, 4H55-AA; test: two-hybrid library CCmax
T50 chain: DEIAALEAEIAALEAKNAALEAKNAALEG

4H662-AA = target: T51, 4H662-AA; test: two-hybrid library CCmax; conditions: mean of both orientations
T51 chain: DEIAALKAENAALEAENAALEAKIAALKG

interaction score (4H3619-AA): -1.28
interaction score (4H3629-AA): 0.411
interaction score (4H3777-AA): -1.36
interaction score (4H380-AA): -0.137
interaction score (4H3915-AA): -0.429
interaction score (4H3974-AA): -0.337
interaction score (4H432-AA): -0.708
interaction score (4H446-AA): -1.21
interaction score (4H63-AA): -0.357
Binder: DKNAALKAEIAALEAKIAALEAENAALEG [4H3619-AA]

interaction score (4H2725-AA): 1.47
interaction score (4H2865-AA): -1.08
interaction score (4H3009-AA): 1.76
interaction score (4H3016-AA): -0.188
interaction score (4H310-AA): -1.1
interaction score (4H3120-AA): -1.56
interaction score (4H3130-AA): -0.815
interaction score (4H3165-AA): -0.466
interaction score (4H3381-AA): -1.94
interaction score (4H3395-AA): -1.64
interaction score (4H3410-AA): -1.72
interaction score (4H3590-AA): -0.62
interaction score (4H3697-AA): 1.2
interaction score (4H3753-AA): -1.26
interaction score (4H3865-AA): -1.16
interaction score (4H458-AA): 0.908
interaction score (4H485-AA): 1.94
interaction score (4H536-AA): -1.71
interaction score (4H570-AA): -0.95
interaction score (4H629-AA): -0.516
interaction score (4H710-AA): 0.748
interaction score (4H745-AA): 1.36
interaction score (4H797-AA): -1.21
interaction score (4H850-AA): -0.653
interaction score (4H891-AA): -1.64
interaction score (4H909-AA): -0.311
interaction score (4H930-AA): 0.224
interaction score (4H94-AA): -0.91
Binder: DKIAALKAENAALEAKIAALEAKIAALEG [4H2725-AA]

The next lines start with the binder.

Binder: DEIQELKKEIEELKRENWELKKKNQELER [4H607-bH]
interaction score (4H607-bH): 0.163
interaction score (4H687-bH): -0.72
interaction score (4H717-bH): 0.512
interaction score (4H72-bH): -1.24
interaction score (4H754-bH): -0.342
interaction score (4H797-bH): -1.49
interaction score (4H883-bH): 0.522
interaction score (4H908-bH): -1.04
interaction score (4H918-bH): -0.801
interaction score (4H953-bH): -0.825
interaction score (4H967-bH): -2

Binder: DEIQELKKENEELKREIWELKKKIQELER [4H717-bH]
interaction score (4H717-bH): 0.358
interaction score (4H72-bH): -0.629
interaction score (4H754-bH): 0.538
interaction score (4H797-bH): -1.17
interaction score (4H883-bH): -0.589
interaction score (4H883-bN): -0.103
interaction score (4H908-bH): -1.59
interaction score (4H918-bH): 0.0812
interaction score (4H953-bH): -0.135
interaction score (4H967-bH): -0.767

Binder: DEIAALEAEIAALEAKNAALEAKNAALEG [4H55-AA]
interaction score (4H55-AA): -1.54
interaction score (4H662-AA): -1.57
